T1: mouse IL-2 receptor β subunit (mIL-2Rβ) (mouse, UniProt P16297 27-240, biotin on the C-terminal biotin acceptor peptide)
T1 construct: extracellular domain; Biotinylated form for SPR; also called MmIL-2Rβ; murine IL-2Rβ
T1 sequence: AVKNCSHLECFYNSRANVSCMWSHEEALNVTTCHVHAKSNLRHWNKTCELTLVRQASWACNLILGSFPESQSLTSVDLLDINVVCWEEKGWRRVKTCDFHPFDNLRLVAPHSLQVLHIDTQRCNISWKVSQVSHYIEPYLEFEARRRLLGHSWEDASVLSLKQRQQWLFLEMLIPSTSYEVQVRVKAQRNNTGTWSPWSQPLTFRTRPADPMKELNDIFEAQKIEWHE

T2: mouse IL-2Rβγc on murine cells (CTLL-2 T cells, primary CD4+ T cells) (mouse, UniProt P16297 27-539; P34902 23-369)
T2 sequence (looked up) 1: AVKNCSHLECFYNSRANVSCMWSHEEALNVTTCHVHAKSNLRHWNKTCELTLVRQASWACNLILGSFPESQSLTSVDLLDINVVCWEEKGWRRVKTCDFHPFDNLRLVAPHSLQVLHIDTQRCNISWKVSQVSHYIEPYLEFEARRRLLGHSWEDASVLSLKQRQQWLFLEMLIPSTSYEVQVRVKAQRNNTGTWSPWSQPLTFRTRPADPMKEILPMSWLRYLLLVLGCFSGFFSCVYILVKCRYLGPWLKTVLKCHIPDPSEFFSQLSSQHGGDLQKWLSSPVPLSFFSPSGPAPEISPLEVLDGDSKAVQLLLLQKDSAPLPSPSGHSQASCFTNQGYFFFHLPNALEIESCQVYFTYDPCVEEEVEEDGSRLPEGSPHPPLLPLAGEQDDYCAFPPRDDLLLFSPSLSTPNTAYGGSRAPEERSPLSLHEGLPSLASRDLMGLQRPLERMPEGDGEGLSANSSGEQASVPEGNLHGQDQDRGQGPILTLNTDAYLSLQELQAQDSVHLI
T2 sequence (looked up) 2: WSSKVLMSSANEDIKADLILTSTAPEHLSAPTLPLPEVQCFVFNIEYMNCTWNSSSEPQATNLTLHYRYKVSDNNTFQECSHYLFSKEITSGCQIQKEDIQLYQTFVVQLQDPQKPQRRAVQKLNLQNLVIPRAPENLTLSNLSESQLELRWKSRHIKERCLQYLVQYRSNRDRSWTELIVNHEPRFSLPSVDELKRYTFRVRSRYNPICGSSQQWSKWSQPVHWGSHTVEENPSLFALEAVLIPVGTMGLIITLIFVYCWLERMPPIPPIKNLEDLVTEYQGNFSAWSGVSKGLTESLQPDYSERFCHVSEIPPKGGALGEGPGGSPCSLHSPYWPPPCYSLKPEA

T3: human IL-2 receptor βγc heterodimer (hIL-2Rβγc), soluble (human, UniProt P14784 27-240; P31785 23-254, biotin on the C-terminal biotin acceptor peptide)
T3 construct: also called HsIL-2Rβγc; hIL-2Rβνc
T3 sequence 1: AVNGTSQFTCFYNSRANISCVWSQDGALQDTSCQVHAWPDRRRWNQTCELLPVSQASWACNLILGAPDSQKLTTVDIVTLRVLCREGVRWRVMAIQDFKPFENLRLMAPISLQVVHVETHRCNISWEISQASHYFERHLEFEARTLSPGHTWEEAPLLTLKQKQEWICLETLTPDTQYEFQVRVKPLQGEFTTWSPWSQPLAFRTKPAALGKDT
T3 sequence 2: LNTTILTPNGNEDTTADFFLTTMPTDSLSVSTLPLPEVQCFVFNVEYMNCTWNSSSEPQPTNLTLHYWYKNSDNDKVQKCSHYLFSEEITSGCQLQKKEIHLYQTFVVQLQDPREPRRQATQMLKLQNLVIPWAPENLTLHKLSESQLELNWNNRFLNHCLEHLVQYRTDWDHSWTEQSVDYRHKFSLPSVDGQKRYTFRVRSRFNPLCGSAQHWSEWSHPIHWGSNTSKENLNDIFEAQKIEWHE

T4: mouse IL-2 receptor βγc heterodimer (mIL-2Rβγc), soluble (mouse, UniProt P16297 27-240; P34902 23-263, biotin on the C-terminal biotin acceptor peptide)
T4 construct: extracellular domain; also called MmIL-2Rβγc; mIL-2Rβνc
T4 sequence 1: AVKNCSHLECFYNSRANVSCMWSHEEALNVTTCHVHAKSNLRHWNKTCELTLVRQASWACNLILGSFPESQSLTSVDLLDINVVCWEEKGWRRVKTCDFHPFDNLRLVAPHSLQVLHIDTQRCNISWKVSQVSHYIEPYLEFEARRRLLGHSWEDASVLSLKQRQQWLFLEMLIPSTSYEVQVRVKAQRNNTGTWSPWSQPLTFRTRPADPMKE
T4 sequence 2: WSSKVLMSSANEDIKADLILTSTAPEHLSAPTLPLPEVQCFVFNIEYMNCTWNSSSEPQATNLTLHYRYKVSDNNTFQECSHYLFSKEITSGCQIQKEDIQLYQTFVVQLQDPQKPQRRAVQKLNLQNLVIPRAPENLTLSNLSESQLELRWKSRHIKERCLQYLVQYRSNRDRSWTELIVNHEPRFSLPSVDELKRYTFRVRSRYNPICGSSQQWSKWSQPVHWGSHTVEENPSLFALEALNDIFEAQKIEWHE

B1: G1_neo2_40_1F_M3 (designed binder)
chain: STEKTQHAAEDALRDALMLRNLLNEPNEKLARIITTMQSWQFTEKIDGDGAQELAKEVEELQQEHEVRGIDVEDYASNLKVILLQLA
B2: G1_neo2_40_1F_M2 (designed binder)
chain: B1 chain with E3K, K4N, H7L, R14L, V67E
B3: G1_neo2_40_1F_M1 (designed binder)
chain: B1 chain with H7L, D11H, R20K, N21H, E44G, Q85H
B4: G1_neo2_40_1F_H5 (designed binder)
chain: STKKTQLLIEHALLDALHMSRKLPEPNEKLSRIITTMQSWIFTGKIDGDGAQHLAKEVEELEQEHEKRGGEVEDEASNLKVILLELA
B5: G2_neo2_40_1F_seq27_S24 (designed binder)
chain: TNKKAQLHAEFALYDALMLLNLSSESNERLNDIITWLQSIIFTGTYDPDMVKEAVKLADEIEDEMRKRKIDTEDYVVNLRYILQELA
B6: G2_neo2_40_1F_seq27_S18 (designed binder)
chain: B5 chain with K4E, D32R, T43Y, G44E, Y81L
B7: G2_neo2_40_1F_seq27_S22 (designed binder)
chain: B5 chain with N2K, K4D, Q6E, H8L, D32E, T43Y, K69G, V77S, Y81L
B8: G2_neo2_40_1F_seq29_S8 (designed binder)
chain: EDYYSNLKLILEELAREMERNGLSDKAEEWRQWKKIVERIRQIRSNNSDLNEAKELLNRLITYIQSQIFEVLEGVGETDQEKKEESWKKWELHLEHALLDVLMLLND
B9: G2_neo2_40_1F_seq29_S7 (designed binder)
chain: B8 chain with L9V, R59E, L72I, G74R, V75E
B10: G2_neo2_40_1F_seq29_S6 (designed binder)
chain: B8 chain with E73H, E91D, H93L
B11: G2_neo2_40_1F_seq36_S12 (designed binder)
chain: PKKKIQLLAEHALFDLLMILNIVKTNSQNAEEKLEDYAYNAGVILEEIARLFESGDQKDEAEKAKRMKEWMKRIKDTASEDEQEEMANEIITILQSWNFS

Changes are numbered by the printed parent chain.

For one experiment, the target named is T1, mouse IL-2 receptor β subunit (mIL-2Rβ). Put plainly: SPR, equilibrium titration; biotinylated IL-2Rβ on streptavidin chip. The protocol: (§1) Less than 100 response units (RU) of each ligand was immobilized to minimize mass transfer effects. […] Surface regeneration for all interactions was conducted using 15 s exposure to 1 M MgCl2 in 10 mM sodium acetate pH 5.5. SPR experiments were carried out in HBS-P+ buffer (GE Healthcare) supplemented with 0.2% bovine serum albumin (BSA) at 25° C. and all binding studies were performed at a flow rate of […] to prevent analyte rebinding. Data was visualized and processed using the Biacore T100 evaluation software version 2.0 (GE Healthcare). Equilibrium titration curve fitting and equilibrium binding dissociation (KD) value determination was implemented using GraphPad Prism assuming all binding interactions to be first order. Biolayer interferometry: binding data were collected in a Octet RED96 (ForteBio, Menlo Park, Calif.) and processed using the instrument's integrated software using a 1:1 binding model. […] Analyte proteins were diluted from concentrated stocks into binding buffer. After baseline measurement in binding buffer alone, the binding kinetics were monitored by dipping the biosensors in wells containing 100 nM of the designed protein (association) and then dipping the sensors back into baseline wells (dissociation).
In general terms: In SPR one partner is held on a chip, and binding of the other changes the refractive index at the surface.
With B1, binding was characterised by a dissociation constant (Kd) of 402 nM.

Consider B2, for which the Kd (in general, the free concentration of one partner at which half of the binding sites on the other are occupied at equilibrium, for simple one-to-one binding) stood at 2600 nM.

As to B3, the Kd was determined as 214 nM.

As for B4, the Kd was 45300 nM.

The target of another experiment is T2, mouse IL-2Rβγc on murine cells (CTLL-2 …). Put plainly: cell-based or functional assay.
Regarding B1, the “EC50 (CD25+) pSTAT5, murine T (CTLL-2, CD25+) cells” value (“EC50 (CD25+) pSTAT5, murine T” below) was determined as 80 pM.

B2: the “EC50 (CD25+) pSTAT5, murine T” value is 3.11 nM.

Regarding B3, the “EC50 (CD25+) pSTAT5, murine T” value was found to be 7 pM.

Take B4: the “EC50 (CD25+) pSTAT5, murine T” value was 84.7 nM.

A further experiment addresses T3, human IL-2 receptor βγc heterodimer …. Kind of experiment: affinity maturation by yeast display for human and mouse IL-2Rβνc. The protocol: (§2) The vector was linearized by 100 fold overdigestion by NdeI and XhoI (New England Biolabs) and then purified by gel extraction (Qiagen). The genes included 50 bases of overlap with the vector on both the 5′ and 3′ ends such that homologous recombination would place the genes in frame between the AGA2 gene and the myc tag on the vector. Yeast were grown in C-Trp-Ura media prior to induction in SGCAA media as previously described. […] After approximately 30 minutes, cells were washed again in chilled buffer, and then incubated on ice for 5 minutes with FITC-conjugated anti-c-Myc antibody (1 uL per 3×10⁶ cells) and streptavidin-phycoerythrin (1 uL per 100 uL volume of yeast). Yeast were then washed and counted by flow cytometry (Accuri C6) or sorted by FACS (Sony SH800).
In the case of B5, the binding result is “binds”.

For B6, the binding result is “binds”.

In the case of B7, the binding result is listed as “binds”.

For B8, the binding result is on record as “binds”.

As for B9, the binding result was “binds”.

For the molecule B10, the binding result is listed as “binds”.

With B11, the binding result is reported as “binds”.

A further experiment deals with T4, mouse IL-2 receptor βγc heterodimer …. The description is as above. As to the method: as §2
As to B5, the binding result is listed as “binds”.

On to B6, for which the binding result was “binds”.

Consider B7, for which the binding result is reported as “binds”.

As to B8, the binding result is given as “binds”.

Take B9: the binding result is given as “binds”.

With B10, the binding result is “binds”.

As for B11, the binding result is listed as “binds”.

A further experiment has the same target. Kind of experiment: SPR, equilibrium titration; IL-2Rγ on streptavidin chip, saturating IL-2Rβ in solution. As to the method:
as §1
B1 registered a Kd of 64.8 nM.

In the case of B2, the Kd worked out at 886 nM.

For B3, the Kd turned out to be 4.3 nM.

For the molecule B4, the Kd amounted to 5120 nM. This Kd is about 1200-fold higher than that of the molecule before.

(Values after patent US20200339648A1 (University of Washington, published 2020).)
